Experimental data from patent publication US20110143953A1.

Experiments:
transferrin, P02787 [1] = test: SPR, transferrin immobilized, Kd from kinetics
transferrin, P02787 [2] = test: SPR
[3] = target: AKT1 (as used in SPR), P31749; test: SPR
Chain of AKT1 (as used in SPR), P31749 (P31749 whole entry): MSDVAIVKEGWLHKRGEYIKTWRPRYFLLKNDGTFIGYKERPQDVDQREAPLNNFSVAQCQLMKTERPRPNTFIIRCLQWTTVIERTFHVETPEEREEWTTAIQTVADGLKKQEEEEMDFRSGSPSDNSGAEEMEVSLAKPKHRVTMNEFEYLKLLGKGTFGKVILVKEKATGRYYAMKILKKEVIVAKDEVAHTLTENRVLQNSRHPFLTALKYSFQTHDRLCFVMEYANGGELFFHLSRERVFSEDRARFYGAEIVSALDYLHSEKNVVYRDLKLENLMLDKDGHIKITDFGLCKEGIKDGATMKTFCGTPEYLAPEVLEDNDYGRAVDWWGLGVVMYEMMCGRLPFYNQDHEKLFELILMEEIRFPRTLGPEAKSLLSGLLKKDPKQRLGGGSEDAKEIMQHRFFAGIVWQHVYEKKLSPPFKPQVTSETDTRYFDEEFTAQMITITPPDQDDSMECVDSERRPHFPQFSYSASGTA

Chain of transferrin, P02787 (P02787 20-698 limits assumed): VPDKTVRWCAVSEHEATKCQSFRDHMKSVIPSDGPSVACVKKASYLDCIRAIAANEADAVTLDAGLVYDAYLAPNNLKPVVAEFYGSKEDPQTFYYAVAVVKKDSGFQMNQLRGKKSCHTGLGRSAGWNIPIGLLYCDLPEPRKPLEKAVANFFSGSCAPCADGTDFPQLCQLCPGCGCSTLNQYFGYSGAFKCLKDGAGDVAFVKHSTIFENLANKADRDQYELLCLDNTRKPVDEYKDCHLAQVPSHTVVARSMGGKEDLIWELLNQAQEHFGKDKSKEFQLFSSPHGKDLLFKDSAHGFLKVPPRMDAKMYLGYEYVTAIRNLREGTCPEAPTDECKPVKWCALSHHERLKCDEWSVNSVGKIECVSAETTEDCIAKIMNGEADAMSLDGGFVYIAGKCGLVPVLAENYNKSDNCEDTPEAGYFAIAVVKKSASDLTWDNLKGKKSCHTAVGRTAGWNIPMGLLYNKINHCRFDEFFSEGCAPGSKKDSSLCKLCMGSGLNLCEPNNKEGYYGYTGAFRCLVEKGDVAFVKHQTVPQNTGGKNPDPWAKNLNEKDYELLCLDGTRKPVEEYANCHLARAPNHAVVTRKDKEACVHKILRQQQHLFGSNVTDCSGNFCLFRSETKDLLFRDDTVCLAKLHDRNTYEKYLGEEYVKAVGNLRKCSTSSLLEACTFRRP

Kd (transferrin, P02787 [1]): 150 nM | Kd (transferrin, P02787 [2]): 141 nM | Kd [3]: 1 nM
B1: SYN23-26 (designed binder)
peptide 1: FRGWAHIFFGPHVIYRGGSG
peptide 2: AHKVVPQRQIRHAYNRYGSG
modifications: not fully specified; C-terminal glycine joined to one of the two amines (alpha or epsilon) of a lysine linker; chain 1 pos 20 and chain 2 pos 20: the C-terminal Gly of each 20-mer is joined to the alpha or the epsilon amine of one branching lysine (about 1 nm spacing). The lysine is followed by a C-terminal cysteine whose thiol is biotinylated for the array. The Lys-Cys core is left out of the …
